# Laboratory results taken from publication PMC11259171, “Huntingtin is an RNA binding protein and participates in NEAT1-mediated paraspeckles”.
# Target: mHTT-HAP40 Q54 (expanded mutant huntingtin with HAP40) (UniProt P42858;P23610 1-38+=QQQQQQQQQQQQQQQQQQQQQQQQQQQQQQQQQ+39-3142;1-371, internal_change)
# Test: fluorescence polarization (method implied); 20 mM Hepes pH 7.4, 50 mM KCl, 2 mM MgCl2, 1 mM TCEP, 2.5% glycerol, 0.005% Tween 20; SPR 20 C, EMSA on ice, FP 10 min (temperature not stated)
# Conditions: protein: recombinant; copies: 1;1; label: 5'-FAM (FP, EMSA); biotin (SPR)
# Chain of mHTT-HAP40 Q54 (expanded mutant huntingtin with HAP40) (P42858 other isoform, or with tags, fused parts or gaps | mutant, chain 1 of 2): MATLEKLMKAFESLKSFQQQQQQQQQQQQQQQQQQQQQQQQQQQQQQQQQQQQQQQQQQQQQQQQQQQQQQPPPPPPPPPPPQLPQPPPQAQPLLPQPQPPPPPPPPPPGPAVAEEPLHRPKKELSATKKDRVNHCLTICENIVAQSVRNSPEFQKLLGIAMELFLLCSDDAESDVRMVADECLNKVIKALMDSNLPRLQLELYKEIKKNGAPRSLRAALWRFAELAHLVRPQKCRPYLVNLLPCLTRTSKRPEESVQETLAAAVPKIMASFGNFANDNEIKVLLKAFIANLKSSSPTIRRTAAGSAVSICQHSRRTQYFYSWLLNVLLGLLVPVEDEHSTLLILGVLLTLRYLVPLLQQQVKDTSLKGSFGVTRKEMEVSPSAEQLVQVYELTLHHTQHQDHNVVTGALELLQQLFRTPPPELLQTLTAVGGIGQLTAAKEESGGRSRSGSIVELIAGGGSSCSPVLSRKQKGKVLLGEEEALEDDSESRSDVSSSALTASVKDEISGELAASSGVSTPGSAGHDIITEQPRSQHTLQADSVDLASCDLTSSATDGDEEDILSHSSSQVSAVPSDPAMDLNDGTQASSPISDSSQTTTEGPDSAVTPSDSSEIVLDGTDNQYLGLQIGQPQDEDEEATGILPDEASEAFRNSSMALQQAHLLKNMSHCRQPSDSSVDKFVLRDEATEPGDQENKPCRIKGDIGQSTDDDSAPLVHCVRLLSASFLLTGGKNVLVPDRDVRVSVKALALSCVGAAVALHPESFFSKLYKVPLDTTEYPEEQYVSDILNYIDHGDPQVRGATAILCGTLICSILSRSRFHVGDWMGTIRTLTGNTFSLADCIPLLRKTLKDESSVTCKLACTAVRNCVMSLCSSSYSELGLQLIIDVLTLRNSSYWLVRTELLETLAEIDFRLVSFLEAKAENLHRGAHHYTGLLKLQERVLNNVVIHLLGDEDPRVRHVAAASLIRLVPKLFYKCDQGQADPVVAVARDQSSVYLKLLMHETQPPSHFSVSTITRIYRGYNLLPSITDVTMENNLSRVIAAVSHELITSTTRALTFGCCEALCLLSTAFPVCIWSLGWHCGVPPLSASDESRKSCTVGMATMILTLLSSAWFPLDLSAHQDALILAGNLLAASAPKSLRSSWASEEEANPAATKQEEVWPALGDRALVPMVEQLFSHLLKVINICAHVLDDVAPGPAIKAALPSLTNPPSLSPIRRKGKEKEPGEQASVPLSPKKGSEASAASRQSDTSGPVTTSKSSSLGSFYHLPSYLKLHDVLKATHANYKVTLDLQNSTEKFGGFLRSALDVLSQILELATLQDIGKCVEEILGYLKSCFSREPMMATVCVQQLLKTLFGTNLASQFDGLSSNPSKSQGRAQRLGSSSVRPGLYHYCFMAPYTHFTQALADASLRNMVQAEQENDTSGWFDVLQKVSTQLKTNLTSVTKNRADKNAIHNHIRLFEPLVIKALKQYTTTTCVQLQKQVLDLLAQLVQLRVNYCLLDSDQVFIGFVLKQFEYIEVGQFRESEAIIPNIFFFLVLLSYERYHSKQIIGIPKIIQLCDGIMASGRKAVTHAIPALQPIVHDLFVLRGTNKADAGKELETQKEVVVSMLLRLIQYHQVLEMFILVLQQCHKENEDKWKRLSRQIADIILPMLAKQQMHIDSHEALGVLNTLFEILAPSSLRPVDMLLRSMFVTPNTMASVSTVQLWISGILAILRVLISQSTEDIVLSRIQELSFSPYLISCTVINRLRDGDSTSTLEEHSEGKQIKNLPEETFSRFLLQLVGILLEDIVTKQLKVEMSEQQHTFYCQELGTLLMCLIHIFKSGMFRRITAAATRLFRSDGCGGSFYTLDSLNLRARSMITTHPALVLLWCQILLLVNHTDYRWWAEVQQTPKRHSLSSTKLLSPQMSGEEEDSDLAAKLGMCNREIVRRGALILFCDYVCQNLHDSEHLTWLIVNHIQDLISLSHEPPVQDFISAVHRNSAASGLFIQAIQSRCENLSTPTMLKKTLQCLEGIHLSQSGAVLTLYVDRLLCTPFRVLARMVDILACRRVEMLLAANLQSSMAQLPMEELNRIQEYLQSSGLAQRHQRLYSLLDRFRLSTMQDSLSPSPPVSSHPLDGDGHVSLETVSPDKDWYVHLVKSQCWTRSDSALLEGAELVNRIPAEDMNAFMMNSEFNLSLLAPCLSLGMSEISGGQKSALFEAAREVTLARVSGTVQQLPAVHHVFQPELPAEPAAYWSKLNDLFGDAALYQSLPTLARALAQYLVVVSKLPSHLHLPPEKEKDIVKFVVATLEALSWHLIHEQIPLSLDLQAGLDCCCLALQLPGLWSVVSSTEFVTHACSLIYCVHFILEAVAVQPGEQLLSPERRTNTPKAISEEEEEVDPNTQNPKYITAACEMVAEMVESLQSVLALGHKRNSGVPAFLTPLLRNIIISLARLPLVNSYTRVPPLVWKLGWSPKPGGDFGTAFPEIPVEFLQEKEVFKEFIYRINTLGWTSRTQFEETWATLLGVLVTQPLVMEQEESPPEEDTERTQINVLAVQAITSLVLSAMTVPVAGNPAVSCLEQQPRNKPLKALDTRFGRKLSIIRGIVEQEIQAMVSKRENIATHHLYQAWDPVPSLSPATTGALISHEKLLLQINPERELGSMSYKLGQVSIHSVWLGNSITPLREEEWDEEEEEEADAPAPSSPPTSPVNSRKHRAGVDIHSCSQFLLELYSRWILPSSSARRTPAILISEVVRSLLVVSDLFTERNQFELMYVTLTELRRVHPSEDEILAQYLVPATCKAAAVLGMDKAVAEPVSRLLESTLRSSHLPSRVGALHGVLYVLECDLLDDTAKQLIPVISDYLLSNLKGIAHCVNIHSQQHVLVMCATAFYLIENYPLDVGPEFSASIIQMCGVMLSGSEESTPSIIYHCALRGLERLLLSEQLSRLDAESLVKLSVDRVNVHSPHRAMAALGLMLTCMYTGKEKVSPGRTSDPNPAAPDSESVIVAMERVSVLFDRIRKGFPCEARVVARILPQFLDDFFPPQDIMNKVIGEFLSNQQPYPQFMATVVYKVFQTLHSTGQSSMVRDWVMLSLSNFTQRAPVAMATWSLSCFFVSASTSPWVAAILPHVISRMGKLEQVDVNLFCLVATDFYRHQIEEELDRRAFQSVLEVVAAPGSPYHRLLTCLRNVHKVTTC
# Chain of mHTT-HAP40 Q54 (expanded mutant huntingtin with HAP40) (P23610 whole entry, change not shown, chain 2 of 2): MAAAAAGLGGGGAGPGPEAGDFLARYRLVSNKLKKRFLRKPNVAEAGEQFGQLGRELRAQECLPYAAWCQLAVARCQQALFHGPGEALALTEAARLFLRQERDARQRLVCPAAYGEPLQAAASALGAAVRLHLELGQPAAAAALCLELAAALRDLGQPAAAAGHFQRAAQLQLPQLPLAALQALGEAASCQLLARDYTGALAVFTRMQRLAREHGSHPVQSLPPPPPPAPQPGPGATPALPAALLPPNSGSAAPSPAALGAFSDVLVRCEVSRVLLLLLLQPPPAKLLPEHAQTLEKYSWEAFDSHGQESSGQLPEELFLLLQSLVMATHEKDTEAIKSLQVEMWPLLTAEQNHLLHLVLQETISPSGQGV
binder,measurement,value
100-mer random ssRNA (ssRNA) RNA: CACGUAUGAGAAGGUAUUUGCCCGAUAAUCAAUACCCCAGGCUUCUAACUUUUUCCACUCGCUUGAGCCGGCUAGGCCUUUCUGCCCGAAGUUUCGAUGG,Kd,500 ± 300 nM
